{"source": "patent US20020147129A1", "key": {"[1]": {"target": "embryonic chicken Ang II receptor (chicken)", "sequence (P79785 whole entry)": "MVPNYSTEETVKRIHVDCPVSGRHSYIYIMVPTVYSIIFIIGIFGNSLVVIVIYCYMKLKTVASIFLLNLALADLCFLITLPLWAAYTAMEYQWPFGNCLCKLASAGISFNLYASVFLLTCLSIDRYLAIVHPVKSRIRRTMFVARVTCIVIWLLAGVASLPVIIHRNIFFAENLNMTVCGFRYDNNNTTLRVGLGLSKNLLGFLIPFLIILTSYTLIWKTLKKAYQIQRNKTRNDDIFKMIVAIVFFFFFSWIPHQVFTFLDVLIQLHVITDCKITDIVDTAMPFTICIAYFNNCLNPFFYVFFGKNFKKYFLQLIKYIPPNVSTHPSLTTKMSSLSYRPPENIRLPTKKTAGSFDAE", "experiment": "competition for 125I[Sar1Ile8]Ang II binding, E13 chicken chorioallantoic membranes"}, "[2]": {"target": "embryonic chicken AT4 receptor (chicken)", "sequence (F1NNE7 entry or part of it)": "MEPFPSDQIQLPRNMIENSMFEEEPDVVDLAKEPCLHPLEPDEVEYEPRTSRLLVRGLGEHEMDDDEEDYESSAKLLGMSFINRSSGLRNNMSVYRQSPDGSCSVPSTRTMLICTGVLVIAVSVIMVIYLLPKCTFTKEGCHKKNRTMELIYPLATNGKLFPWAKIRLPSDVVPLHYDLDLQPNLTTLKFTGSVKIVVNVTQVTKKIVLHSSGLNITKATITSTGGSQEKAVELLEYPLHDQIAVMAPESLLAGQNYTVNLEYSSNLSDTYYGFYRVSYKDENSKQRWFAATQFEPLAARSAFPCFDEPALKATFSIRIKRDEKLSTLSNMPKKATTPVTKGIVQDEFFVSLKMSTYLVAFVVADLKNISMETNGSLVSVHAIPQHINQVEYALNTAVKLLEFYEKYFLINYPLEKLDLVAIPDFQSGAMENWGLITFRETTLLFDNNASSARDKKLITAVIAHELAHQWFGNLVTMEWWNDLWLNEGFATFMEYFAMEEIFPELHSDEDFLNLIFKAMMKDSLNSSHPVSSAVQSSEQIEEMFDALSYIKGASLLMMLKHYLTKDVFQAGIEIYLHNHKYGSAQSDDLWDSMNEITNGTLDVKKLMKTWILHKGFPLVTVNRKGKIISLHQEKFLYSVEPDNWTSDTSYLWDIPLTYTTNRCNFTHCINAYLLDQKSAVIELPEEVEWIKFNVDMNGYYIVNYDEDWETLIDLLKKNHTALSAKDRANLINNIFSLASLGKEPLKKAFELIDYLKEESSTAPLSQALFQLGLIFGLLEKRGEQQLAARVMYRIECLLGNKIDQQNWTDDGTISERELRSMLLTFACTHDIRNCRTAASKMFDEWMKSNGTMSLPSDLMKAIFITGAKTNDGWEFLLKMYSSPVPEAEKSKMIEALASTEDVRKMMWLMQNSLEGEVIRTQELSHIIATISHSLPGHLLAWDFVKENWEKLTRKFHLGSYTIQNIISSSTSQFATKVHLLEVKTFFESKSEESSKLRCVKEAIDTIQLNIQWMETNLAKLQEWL", "experiment": "competition for [125I]Ang IV binding, E13 chicken chorioallantoic membranes"}}, "note": "Where no end group is shown, it is not given here. [ ]: non-standard residue; d: D form. Nle = CCCC[C@H](N)C(=O)O", "data": [{"binder": "[Nle]YIHPF", "note": "[Nle^1-AIV]", "values": [{"measurement": "IC50", "setting": "[1]", "value": 8, "unit": "µM"}, {"measurement": "IC50", "setting": "[2]", "value": 0.043, "unit": "µM"}]}]}
